Where a chain is given by its changes, count along the chain named. In names and notes the source's numbering stands. Read-outs that look alike come from different tables or passages of the source.

The target of one data set is T1, wheat eIF4E (Triticum aestivum, UniProt P29557).
T1 sequence (P29557 39-215): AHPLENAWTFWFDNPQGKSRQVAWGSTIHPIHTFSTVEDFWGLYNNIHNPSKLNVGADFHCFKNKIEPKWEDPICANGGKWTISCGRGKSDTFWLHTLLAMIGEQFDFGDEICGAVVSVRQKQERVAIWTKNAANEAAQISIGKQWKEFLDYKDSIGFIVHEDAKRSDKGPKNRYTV
Description: isothermal titration calorimetry. Format: binding. (In general: In ITC the heat of successive injections is recorded.)

The target of data set [1] is T2, human eIF4E (human, UniProt P06730). Description: ITC.
For data set [2], the target named is T2, human eIF4E. In words: ITC. This is another data set of the same source.
The target in a further data set is GB1-human eIF4E (human, UniProt P06730). Description: ITC.
Data set [3] concerns the target T2, human eIF4E. Description: ITC. The source holds these as a separate data set.
Data set [4] concerns the target T2, human eIF4E. In words: ITC. The source holds these as a separate data set.

`C[n+]1cn([C@@H]2O[C@H](COP(=O)(O)OP(=O)(O)OP(=O)(O)O)[C@@H](O)[C@H]2O)c2nc(N)[nH]c(=O)c21` [m7GTP]: at wheat eIF4E, the Kd is 1.8 ± 0.8 µM.

B1: SCV PTE G18C (structured_RNA)
RNA: GGUUGCUCGACUGUGAGCGGACCUACCCACUGUGGAAACACCACAGGAACUUCCAACCUUCGGGUGGCGAGGUAGGGCAGAAGAGUGACC
Take B1: in the data set with human eIF4E [1], the binding result is listed as “no binding”.

B2: SCV PTE G18A (structured_RNA)
RNA: B1 RNA with C18A
In turn, B2 gave a Kd in the data set with human eIF4E [2] of 6.2 ± 0.9 µM.

B3: SCV PTE G18U (structured_RNA)
RNA: B1 RNA with C18U
Take B3: the binding result in the data set with human eIF4E [1] is “no binding”.

B4: SCV PTE WT (structured_RNA)
RNA: GGUUGCUCGACUGUGAGGGGACCUACCCACUGUGCUGCCACACAGGAACUUCCAACCUUCGGGUGGCGAGGUAGGGCAGAAGAGUGACC
Turning to B4, the Kd with GB1-human eIF4E worked out at 0.9 ± 0.236 µM; in the data set with human eIF4E [3], 0.576 ± 0.056 µM.
For GGGGUCUCUCUUGUCGAGAGGCAAGGAACCC (ssRNA, 5' cap (m7G)) [5' capped RNA], the affinity with human eIF4E [4], expressed as Kd, was 0.076 ± 0.003 µM.

What is called Kd is a measure of binding affinity in units of concentration. Low readings indicate tighter binding, high ones weaker binding.

Values taken from paper PMC10823258 (Proceedings of the National Academy of Sciences of the …, 2024).
